This test deals with Recombinant myostatin. The experiment in a line: cell-based or functional assay.

In the case of “350 protein (amino acids 267-350 of bovine myostatin) (from UniProt O18836 267-350)”, the macrophage migration towards ZAMS medium (Boyden-type chemotaxis chamber), 5 µg/ml myostatin with 350 protein at 10 and 25 µg/ml was 20 fold.

These data come from patent US20080187543A1.
